Literature values as cited in paper PMC7252266.

Molecular target: UROD (Homo sapiens) (UniProt P06132)

Kd: 100 nM
Substance: UROD (from UniProt P06132)
